Experimental data as given in patent US20230348564A1, “ANTI-CANCER PROTEINS” (UNICHEM LABORATORIES LTD, priority 2020, published 2023).

How the values were obtained:
[1] = test system: A549 (Human lung carcinoma); assay: Calcein AM cytotoxicity assay; settings: 48h
Protocol: (§1) All the cancer cell lines were procured from National Centre for Cell Science, Pune (India). The cell lines were maintained under conditions as described in Table 21 below. The cell lines were sub-cultured by trypsinization followed by splitting the cell suspension into fresh flasks and supplementing with fresh culture medium.
(§2) All the cell lines were grown in specified media at 37° C. with 95% Humidity and […].
(§3) The cells were trypsinized, counted by Trypan blue method in Neuebauer's Chamber and plated in wells of flat bottom 96-well plate (dark walled plate, flat bottom) at the density corresponding to 10×10^3 cells/well/180 μl medium.
(§4) Following overnight incubation, the cells were treated with test item (20 μL) at concentrations ranging from 2.5-80 μg/mL, so that the total volume in each well is 200 μL.
(§5) The cells were incubated with the test items or positive control for a time period of 48h. Following incubation, the cell cytotoxicity was estimated using Calcein AM Cell Viability Assay Kit from R&D systems (Cat No. 4892-010-K).
(§6) Fluorescence was measured at 485 nm (excitation/528 run (emission) spectra using Synergy HT micro plate reader.
(§7) Percentage cytotoxicity wrt untreated cells was calculated using formula:
(§8) Cytotoxicity=[(RFUuntreated−RFUsample)/RFUuntreated]*100
(§9) RFU: relative fluorescence units
(§10) IC50 value was calculated using Graph-Pad Prism version 4.01 software.

[2] = test system: ZR-75-1 (Human ductal carcinoma); assay: Calcein AM cytotoxicity assay; settings: 48h
Protocol: as §1, §2, §3, §4, §5, §6, §7, §8, §9, §10

[3] = test system: KB (Human cervical carcinoma); assay: Calcein AM cytotoxicity assay; settings: 48h
Protocol: as §1, §2, §3, §4, §5, §6, §7, §8, §9, §10

[4] = test system: MCF-7 (Human breast adenocarcinoma); assay: Calcein AM cytotoxicity assay; settings: 48h
Protocol: as §1, §2, §3, §4, §5, §6, §7, §8, §9, §10

[5] = test system: THP-1 (Human acute monocytic leukemia); assay: Calcein AM cytotoxicity assay; settings: 48h
Protocol: as §1, §2, §3, §4, §5, §6, §7, §8, §9, §10

[6] = test system: PBMCs (Peripheral blood mononuclear cells); assay: Calcein AM cytotoxicity assay; settings: 48h
Protocol: as §1, §2, §3, §4, §5, §6, §7, §8, §9, §10

[7] = test system: SKOV-3 (Human Ovary adenocarcinoma); assay: Calcein AM cytotoxicity assay; settings: 48h
Protocol: as §1, §2, §3, §4, §5, §6, §7, §8, §9, §10

[8] = test system: SW620 (Human Colorectal adenocarcinoma); assay: Calcein AM cytotoxicity assay; settings: 48h
Protocol: as §1, §2, §3, §4, §5, §6, §7, §8, §9, §10

[9] = test system: PA-1 (Ovary teratocarcinoma); assay: Xenograft study; format: in vivo, mice; settings: PA-1 xenograft, IP
Source text: (§11) The Xenograft models used were HT-29, KB, PA-1, MCF-7, PANC-1, T24 and MDA-MB-231. The basic study design for the Xenograft study was as follows: • 1. Cell maintenance and cell suspension preparation • 2. Aseptic injection of tumor cell suspension in the donor animal • 3. Randomization of animals in respective groups • 4. IP dosing of test items in predetermined doses • 5. IP administration of standard • 6. After completion of dosing period. • 7. The Tumor volume recording weekly twice while body weight and clinical signs daily.

[10] = test system: HT-29 (Colorectal cancer); assay: Xenograft study; format: in vivo, mice
Source text: as §11

KB (Cervical cancer) = assay: Xenograft study; format: in vivo, mice; settings: IP
Source text: as §11

MCF-7 (Breast cancer) = assay: Xenograft study; format: in vivo, mice; settings: MCF-7 xenograft, IP
Source text: as §11

[11] = test system: PANC-1 (Pancreas/duct epithelioid carcinoma); assay: Xenograft study; format: in vivo, mice; settings: PANC-1 xenograft, IP
Source text: as §11

[12] = test system: MDA-MB-231 (Mammary gland/breast adenocarcinoma); assay: Xenograft study; format: in vivo, mice; settings: MDA-MB-231 xenograft, IP
Source text: as §11

[13] = test system: T24 (Urinary bladder/transitional cell carcinoma); assay: Xenograft study; format: in vivo, mice; settings: IP
Source text: as §11

Astrocytoma (U87MG) = assay: cytotoxicity in Brain Tumor Cell lines by MTT assay; settings: 72 h

B1: SEQ ID NO. 2: recombinant lectin; variant of the S. rolfsii lectin amino acid sequence (reported as Rec-2 in WO 2010/095143) (protein)
chain: TYKITVRVYQTNPDAFFHPVEKTVWKYANGGTWTITDDQHVLTMGGSGTSGTLRFHADNGESFTATFGVHNYKRWCDIVTNLAADETGMVINQQYYSQKNREEARERQLSNYQVKNAKGRNFQIVYTEAEGNDLHANLIIG
modifications: In vitro synthesis
PANC-1
  % Cytotoxicity: 60.8%
[1]
  IC50: >80 µg/mL
[2]
  IC50: >80 µg/mL
[3]
  IC50: 18.4 µg/mL
[4]
  IC50: >80 µg/mL
[5]
  IC50: >80 µg/mL
[6]
  IC50: >80 µg/mL
[7]
  IC50: >80 µg/mL
[8]
  IC50: >80 µg/mL
[9]
  Maximum Tumor Growth Inhibition (%): 62.15%
  Tumor Volume (mm^3) (Mean ± SEM): 1050 ± 132 mm^3
[10]; 20 mg/Kg and 30 mg/Kg body weight (daily)
  tumor volume in comparison with the vehicle control group, in words: significant decrease in tumor volume
[10]; HT-29 xenograft, IP
  Maximum Tumor Growth Inhibition (%): 56.62%
  Tumor Volume (mm^3) (Mean ± SEM): 1702 ± 274 mm^3
KB (Cervical cancer)
  Maximum Tumor Growth Inhibition (%): 60.49%
  Tumor Volume (mm^3) (Mean ± SEM): 782 ± 92 mm^3
MCF-7 (Breast cancer)
  Maximum Tumor Growth Inhibition (%): 69.04%
  Tumor Volume (mm^3) (Mean ± SEM): 1256 ± 132 mm^3
[11]
  Maximum Tumor Growth Inhibition (%): 39.15%
  Tumor Volume (mm^3) (Mean ± SEM): 721.17 ± 194.63 mm^3
[12]
  Maximum Tumor Growth Inhibition (%): 35.21%
  Tumor Volume (mm^3) (Mean ± SEM): 834.80 ± 126.95 mm^3
[13]
  Maximum Tumor Growth Inhibition (%): 36.52%
  Tumor Volume (mm^3) (Mean ± SEM): 551.06 ± 10.02 mm^3
MDA-MB-231
  % Cytotoxicity: 60.9%
Astrocytoma (U87MG)
  IC50 Value: 98.88 µg/mL
